Data: patent publication US20250084163A1 (SORRENTO THERAPEUTICS, published 2025)
Numbering of substitutions follows the chain as printed.

Key:
[1] = target: T1, Recombinant truncated human his-tag ROR1 extracellular domain protein (human, UniProt Q01973 30-403); test: SPR (Biacore T200), antibody captured by anti-human Fc, his-tagged ROR1 ECD as analyte
T1 construct: the tag is part of the entry; also called his-tagged ROR1 protein; human ROR1 ECD
Method: Binding kinetics of anti-ROR1 antibodies with his-tagged ROR1 protein were measured using surface plasmon resonance (SPR). The anti-ROR1 antibodies tested included proprietary antibodies RO6D8 wt, RO6D8-s10, RO6D8-jlv1011, and RO6D8-011. Anti-human fragment crystallizable region (Fc region) antibody was immobilized on a CM5 sensor chip to approximately 8,000 RU using standard N-hydroxysuccinimide/N-Ethyl-N′-(3-dimethylaminopropyl) carbodiimide hydrochloride (NHS/EDC) coupling methodology. The anti-ROR1 antibodies (1-2 μg/mL) were captured for 60 seconds at a flow rate of 10 μL/minute. The his-tagged ROR1 protein included amino acid 30 to amino acid 403 of SEQ ID NO: 1 (i.e., SEQ ID NO:2) (Acro Biosystems; Cat. No. RO1-H522Y). This polypeptide was serially diluted in a running buffer of 0.01 M HEPES pH 7.4, 0.15 M NaCl, 3 mM EDTA, 0.05% v/v Surfactant P20 (HBS-EP+) and run at 6 different dilutions. All measurements were conducted in HBS-EP+ buffer with a flow rate of 30 μL/minute. A 1:1 (Langmuir) binding model was used to fit the data. All BIACORE assays were performed at room temperature using Biacore T200 surface plasmon resonance (GE Healthcare).

[2] = target: T2, Human ROR1 protein (UniProt Q01973-1) (human, UniProt Q01973 30-937); test: flow cytometry on A549 cells (ROR1+)
T2 construct: Endogenous ROR1 of human tumour cell lines; also called ROR1 on A549, Raji (RAJI) and MCF7 cells; cognate antigen expressed at the surface of cells
T2 sequence (Q01973 30-937 limits assumed, one chain of several): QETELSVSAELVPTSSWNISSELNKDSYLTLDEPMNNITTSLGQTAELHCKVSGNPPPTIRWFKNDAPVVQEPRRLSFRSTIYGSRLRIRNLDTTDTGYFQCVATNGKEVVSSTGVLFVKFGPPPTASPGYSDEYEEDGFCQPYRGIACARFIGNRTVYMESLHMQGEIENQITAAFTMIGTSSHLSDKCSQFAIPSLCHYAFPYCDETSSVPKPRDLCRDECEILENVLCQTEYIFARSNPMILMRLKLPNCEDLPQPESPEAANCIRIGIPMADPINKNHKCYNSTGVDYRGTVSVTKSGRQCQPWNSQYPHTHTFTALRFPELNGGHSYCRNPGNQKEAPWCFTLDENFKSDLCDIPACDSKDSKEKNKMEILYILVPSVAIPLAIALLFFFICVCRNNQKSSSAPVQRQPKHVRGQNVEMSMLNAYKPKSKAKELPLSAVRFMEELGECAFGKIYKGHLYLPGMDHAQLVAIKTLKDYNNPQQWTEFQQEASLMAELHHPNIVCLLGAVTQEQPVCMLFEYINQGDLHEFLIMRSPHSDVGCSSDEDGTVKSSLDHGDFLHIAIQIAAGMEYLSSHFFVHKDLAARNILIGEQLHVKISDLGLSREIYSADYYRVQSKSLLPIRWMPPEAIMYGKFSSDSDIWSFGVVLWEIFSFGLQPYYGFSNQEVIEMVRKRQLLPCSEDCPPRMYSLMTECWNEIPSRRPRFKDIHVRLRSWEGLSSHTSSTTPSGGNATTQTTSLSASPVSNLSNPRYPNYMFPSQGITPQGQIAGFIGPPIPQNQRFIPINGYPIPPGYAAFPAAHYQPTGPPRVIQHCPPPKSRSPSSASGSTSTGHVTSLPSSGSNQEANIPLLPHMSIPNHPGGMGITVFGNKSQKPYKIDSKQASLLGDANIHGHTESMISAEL
Method: Flow cytometry was used to test antibody binding to adenocarcinomic human alveolar basal epithelial cell line A549 (ROR1+) and immortalized line of human T lymphocyte cell line Jurkat (ROR1 negative), using various anti-ROR1 antibodies. The cells were prepared at concentration of 1×10⁶/ml in FACS buffer (PBS, 2% FBS, and 0.05% azide). Cells were plated at 30 μl/well in a V-bottom 96-well plate. Anti-ROR1 antibodies (with RO6D8wt used as control) were diluted in FACS buffer (5X serial dilution starting from 50 μg/ml) and 30 μl was added to each well with either A549 or Jurkat cells for 60 min on ice. After incubation, the cells were centrifuged at 2000 rpm for 5 minutes, flip out supernatant. After 1 wash with 200 μL/well of FACS buffer, cells were incubated with an AF647 goat anti-human Fab2 antibody (Jackson ImmunoResearch; Cat. No. 109-606-088) (dilution 1:2000 in FACS buffer) at 50 μL/well for 40 min on ice. After incubation, the cells were centrifuged at 2000 rpm for 5 minutes, flip out supernatant. After 1 wash with 200 μL/well of FACS buffer cells were resuspended in 30 μl of FACS buffer and acquired by flow cytometry using IntelliCyt readout.

[3] = target: T3, Recombinant truncated human his-tag ROR1 Ig-like domain (human, UniProt Q01973 39-151); test: ELISA, antibody coated at 5 ug/mL, his-tagged antigen at 2 ug/ml, anti-his HRP
T3 construct: also called human his-tag ROR1 Ig-like domain C-his; human ROR1 Ig-like domain
T3 sequence (Q01973 other isoform, or with tags, fused parts or gaps limits assumed): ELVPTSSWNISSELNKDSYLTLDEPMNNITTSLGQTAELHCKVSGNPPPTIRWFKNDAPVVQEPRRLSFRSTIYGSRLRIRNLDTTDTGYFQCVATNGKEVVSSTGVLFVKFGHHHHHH
Method: (§1) Cross-reactivity of the anti-human ROR1 antibodies with his-tagged ROR1 recombinant protein from human and mouse, were analyzed by ELISA assay. The antibodies 5 μg/mL (RO6D8wt, RO6D8-s10, RO6D8-glv1011, RO6D8-jlv1011, RO6D8-1v1011) were diluted with PBS buffer and coated on a plate at 50 μL per well or control buffers coated on a plate at 50 μL per well. The plate was washed three times with 150 μL/well of PBS-T (PBSIX supplemented with 0.05% Tween 20). Subsequently, the plate was blocked with 100 μL/well of blocking buffer (blocker Casein in PBS from Bioworld, Cat. No. 40320020-2) for 1 hour at RT. The plates were washed 3 times with 150 μL/well of PBS-T, after blocking. Recombinant mouse his-tag ROR1, 2 μg/ml (Acro Biosystems Cat. No. RO1-M5221, Lot: 1201-48ESI-65), human his-tag ROR1 extracellular domain (SEQ ID NO:2), 1 μg/ml (Acro Biosystems Cat. No. RO1-H522Y, lot: C81-76KF1-FR), human his-tag ROR1 Ig-like domain C-his, 2 μg/ml (Acro Biosystems Cat. No. RO1-H5221, Lot: B311-59SSI-CA), human his-tag CD138, 2 μg/ml (Sino Cat. No. 11429-H08H, Lot: LCL07NO0412) (negative control antibody), and Casein/PBS buffer (control). 30 μl of his-tagged ROR1 antigen, his tagged CD138 or Casein/PBS buffer were added to the plate, per well, and incubated for 1 hour at room temperature. The plate was washed three times with 150 μL/well of PBS-T and anti 6x-his (SEQ ID NO:58) tag antibody HRP (Abcam; Cat. No. Ab1187) was incubated at dilution 1:5,000, 30 μL/well for 1 hour at RT. […] The signal was stopped at the desired saturation point by using 15 μL/well of 2 N sulfuric acid (H₂SO₄) stop solution and read on a plate reader at 450 nm.

[4] = target: T1, Recombinant truncated human his-tag …; test: ELISA, antibody coated at 5 ug/mL, his-tagged antigen at 1 ug/ml, anti-his HRP
Method: as §1, with “(control).” for “(control). 30 μl of his-tagged ROR1 antigen, his tagged CD138 or Casein/PBS buffer were added to the plate, per well, and incubated for 1 hour at room temperature. The plate was washed three times with 150 μL/well of PBS-T and anti 6x-his (SEQ ID NO:58) tag antibody HRP (Abcam; Cat. No. Ab1187) was incubated at dilution 1:5,000, 30 μL/well for 1 hour at RT.”

[5] = target: T2, Human ROR1 protein (UniProt Q01973-1); test: flow cytometry on A549, Raji and MCF7 cells (ROR1+)
Method: Flow cytometry was used to test antibody binding to adenocarcinomic human alveolar basal epithelial cell line A549 (ROR1+), Burkitt's lymphoma cell line RAJI (ROR1+), breast cancer cell line (ROR1+), A549 ROR1-KO cell line (ROR1 knockout) which is ROR1 negative, and Duke's type B adenocarcinoma cell line LS174T (ROR1 negative).
The cells were re-suspended in 120 µL/well of FACS buffer containing Goat anti-human IgG AF647 (1:2,000, Southern Biotech, Cat No. 2040-31, Lot No. D1817-T817C) and plate was incubated for 20 minutes at 4° C. in the dark.
FIGS. 4A-E show anti-human ROR1 antibodies RO6D8-s10, RO6D8-jlv1011, RO6A-a7gm and RO6A-a8gm binding to ROR1-expressing A549 (FIG. 4A), Raji (FIG. 4B), and MCF7 (FIG. 4C) cells; and ROR1 negative A549 ROR1-KO (FIG. 4D) and LS174T (FIG. 4E) cells.

T1 sequence (Q01973 other isoform, or with tags, fused parts or gaps limits assumed): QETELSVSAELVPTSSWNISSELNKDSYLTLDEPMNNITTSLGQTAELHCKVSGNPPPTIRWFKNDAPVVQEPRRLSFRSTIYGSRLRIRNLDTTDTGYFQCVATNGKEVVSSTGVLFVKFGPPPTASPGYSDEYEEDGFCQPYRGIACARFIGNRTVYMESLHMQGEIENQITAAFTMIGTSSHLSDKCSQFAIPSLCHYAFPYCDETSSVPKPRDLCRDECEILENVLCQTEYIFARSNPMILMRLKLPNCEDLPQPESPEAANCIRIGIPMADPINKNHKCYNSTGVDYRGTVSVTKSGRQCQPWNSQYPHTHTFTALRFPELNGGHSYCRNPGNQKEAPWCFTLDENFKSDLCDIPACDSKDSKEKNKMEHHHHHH

B1: RO6D8-s10 (antibody, V domains shown)
VH: QVQLVQSGAEVKKPGASVKVSCKASGYTFTNYYMHWVRQAPGQGLEWMGIINPSGGSTSYAQKFQGRVTMTRDTSTSTVYMELSSLRSEDTAVYYCARSSRSSYYLWVLDLWGQGTTVTVSS
VL: AIQMTQSPSSLSASVGDRVTITCRASQGVSTEIAWYQQKPGKAPKLLIYAASSLQSGVPSRFSGSGSGTDFTLTISSLQPEDFATYYCQQFNSYPITFGQGTRLEIK
binding result [1]: binds | binding result [2]: binds | binding result [3]: binds

B2: RO6D8-jlv1011 (antibody, V domains shown)
VH: QVQLVQSGAEVKKPGASVKVSCKASGYTFTSKYYHWVRQAPGQGLEWMGIINPTSGSTSYAQKFQGRVTMTRDTSTSTVYMELSSLRSEDTAVYYCARDSSRYSGWYFDLWGQGTTVTVSS
VL: B1 VL with M4L, F91Y, N92Y, S93G, T97A
binding result [1]: binds | binding result [2]: binds | binding result [3]: binds

B3: RO6D8wt (antibody, V domains shown)
VH: B1 VH with S99D, R101S, S103W, Y105S, L106G, V108Y, L109F
VL: B1 VL with G28D, S30R, T31A, E32H, I33L
notes: it was captured by an anti-human Fc antibody in SPR, so it carries a human Fc; also called wildtype anti-human ROR1 antibody
binding result [2]: binds | binding result [4]: binds | binding result [3]: binds

B4: RO6D8-011 (antibody, V domains shown)
VH: B1 VH with S54T, G55S, S57R, S99D, R101S, S103W, Y105S, L106G, V108Y, L109F
VL: B1 VL with V29I, S30R, E32D, I33L, F91Y, N92Y, S93G, T97A
notes: it was captured by an anti-human Fc antibody in SPR; also called RO6D8-O11
binding result [1]: binds

B5: RO6A-a8gm (antibody, V domains shown)
VH: QVQLVESGGGLVKPGGSLRLSCAASGFTFSDYYMTWIRQAPGKGLEWVSYISGSSAYSNYADSVKGRFTISRDNSKNTLYLQMNSLRAEDTAVYYCARDPLLYGWLTDWGQGTLVTVSS
VL: QSALTQPASVSGSPGQSITISCTGTSSDGGGYDSVSWYQQHPGKAPKLMIYDVNKRPSGVSGRFSGSKSGNTASLTISGLQAEDEADYYCSSFTSDVMVFGGGTKLTVL
notes: it was detected with goat anti-human IgG and compared with an IgG1 isotype control
binding result [5]: binds
